Assay results reported in US20260217863A1 (UIF UNIVERSITY INDUSTRY FOUNDATION YONSEI UNIVERSITY, published 2026).

How the values were obtained:
[1] = target: T1, Ribonuclease A (Type II-A) from bovine pancreas (bovine, UniProt P61823 27-150); assay: SPR biosensor, RNase A immobilized on the Au chip, peptide in solution
T1 construct: mature; The probe assay used the RNase A of a bought kit (Abcam ab273299); also called RNase A; bovine pancreatic RNase A
T1 sequence (looked up): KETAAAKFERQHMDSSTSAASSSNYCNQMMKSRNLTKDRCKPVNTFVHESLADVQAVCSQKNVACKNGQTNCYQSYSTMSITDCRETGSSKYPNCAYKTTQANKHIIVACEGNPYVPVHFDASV
Experimental: (§1) Binding analysis of the expressed FV antibody and synthesized peptides against RNase A was performed using an SPR (Surface Plasmon Resonance) biosensor from I-Cluebio (Seongnam, Korea). RNase A was immobilized on the gold surface of the SPR chip used in the SPR biosensor to conduct the binding analysis. For the manufacture of the SPR chip, a 2 nm thick titanium adhesive layer and a 48 nm thick gold surface were consecutively sputter-coated onto BK-7 glass (1×1 cm²). […] To analyze the binding of the expressed Fv antibody to RNase A, Fv antibodies in the concentration range of 0.37-100 nM were reacted using PBS buffer as the […] through association (10 minutes), equilibrium (5 minutes), and dissociation (10 minutes) steps. The washing buffer and total SPR measurements were performed at a flow rate of 15 μL/min. For the binding analysis of the synthesized peptides against RNase A, peptides in the concentration range of 0.37-100 nM were reacted using PBS buffer as the washing buffer through association (10 minutes), equilibrium (5 minutes), and dissociation (10 minutes) steps, and total SPR measurements were conducted at a flow rate of 15 μL/min.
Using the screened CDR3 amino acid sequences, the CDR3 regions of the screened Fv antibodies were synthesized as peptides, and the amino acid sequences were determined from the nucleotide sequences of the CDR3 regions as summarized in Table 7. These synthetic peptides (Peptide-1, Peptide-2, Peptide-3) and Fv antibodies (Fv-1, Fv-2, Fv-3) were identical to the amino acid sequences of the CDR3 regions of the screened clones. The expression of the Fv antibodies was confirmed using SDS-PAGE, and the molecular weight of the Fv antibodies was estimated to be 69.2 kDa as shown in FIG. 9. The affinity constant (KD) of the synthetic peptides and the expressed Fv antibodies against RNase A was estimated using an SPR biosensor.

[2] = target: RNase A contained in the actual serum sample; assay: cell-based or functional assay
[3] = target: T1, Ribonuclease A (Type II-A) from bovine …; assay: cell-based or functional assay
[4] = target: RNase A contained in the saliva swab actual sample; assay: cell-based or functional assay
[5] = target: RNase A contained in the pig swab actual sample (pig (sample: pig swab)); assay: cell-based or functional assay
[6] = target: T1, Ribonuclease A (Type II-A) from bovine …; assay: SPR biosensor, RNase A immobilized on the Au chip, expressed Fv antibody in solution
Experimental: as §1
Using the screened CDR3 amino acid sequences, the CDR3 regions of the screened Fv antibodies were synthesized as peptides, and the amino acid sequences were determined from the nucleotide sequences of the CDR3 regions as summarized in Table 2. These synthetic peptides (Peptide-1, Peptide-2, Peptide-3) and Fv antibodies (Fv-1, Fv-2, Fv-3) were identical to the amino acid sequences of the CDR3 regions of the screened clones. The expression of the Fv antibodies was confirmed using SDS-PAGE, and the molecular weight of the Fv antibodies was estimated to be 69.2 kDa as shown in FIG. 9. The affinity constants (KD) of these synthetic peptides and the expressed Fv antibodies against RNase A were estimated using an SPR biosensor.

[7] = target: T1, Ribonuclease A (Type II-A) from bovine …; assay: cell-based or functional assay; remark: listed apart in the source
[8] = target: T1, Ribonuclease A (Type II-A) from bovine …; assay: SPR, RNase A immobilized on the Au chip, fit of SPR signal against peptide concentration. The label is unnamed: it is printed in the light grey of the Peptide-1 marker at the top end of that curve, and agrees with the 1.3 ± 0.1 µM of the text.
Experimental: RNase A was immobilized on the gold surface of the SPR chip used in the SPR biosensor to conduct the binding analysis. For the manufacture of the SPR chip, a 2 nm thick titanium adhesive layer and a 48 nm thick gold surface were consecutively sputter-coated onto BK-7 glass (1×1 cm²). […] To analyze the binding of the expressed Fv antibody to RNase A, Fv antibodies in the concentration range of 0.37-100 nM were reacted using PBS buffer as the […] through association (10 minutes), equilibrium (5 minutes), and dissociation (10 minutes) steps. The washing buffer and total SPR measurements were performed at a flow rate of 15 μL/min. […]
Using the screened CDR3 amino acid sequences, the CDR3 regions of the screened Fv antibodies were synthesized as peptides, and the amino acid sequences were determined from the nucleotide sequences of the CDR3 regions as summarized in Table 7. […] The SPR signal was plotted according to the concentration of the synthetic peptides, and the affinity constants (KD) of these synthetic peptides were calculated through a fitting process.

B1: Peptide-3, synthetic peptide with the CDR3 sequence of the screened clone (peptide)
peptide: DGTAKKSRKDD
notes: also called peptides-3
[1]
  Kd: 3700 nM
[2]
  decrease of RNase A activity after approximately 27 minutes, cCMP assay, serum actual sample, 1 µM inhibitor: ~60%
[3]
  IC50, cCMP assay (hydrolysis of 2',3'-cyclic CMP, absorbance at 286 nM): 356 nM
  IC50 by linear regression, RNA probe assay: 400 nM
  IC50 for the inhibition of RNase A activity, HeLa total RNA cleavage, agarose gel image: 464 nM
  peptide concentration at which the RNase inhibition activity is over 50%, HeLa total RNA cleavage, agarose gel: > 1 µM
  relative inhibition level after 60 minutes, RNA probe assay (fluorophore and quencher), peptide at 1 µM: 50.3%
[4]
  decrease of RNase A activity after approximately 27 minutes, cCMP assay, saliva swab actual sample, 1 µM inhibitor: ~35%
[5]
  decrease of RNase A activity after approximately 27 minutes, cCMP assay, pig swab actual sample, 1 µM inhibitor: ~41%

B2: Fv-1, expressed soluble Fv antibody of clone 5 (His-tag-TdTomato-VH) (other)
chain: EVQLVESAAEVRRPGASVKITCKASGYSFSTYGIQWMRQAPGQRPEWLGWIHAGTGGTKYSRKFQGRITITRDTSANTVYLDLNSLTSEDTAVYYCARCGPDSDVMTDFWGQGTTVTVSS
notes: Fusion protein made in E. coli from a recombinant plasmid (pJS001 to pJS003, not tied one by one); molecular weight estimated 69.2 kDa; No light chain; also called expressed Fv antibody; TdTomato-labeled Fv antibody; not shown: His-tag; TdTomato fluorescent protein
[2]
  decrease of RNase A activity after approximately 27 minutes, cCMP assay, serum actual sample, 1 µM inhibitor: ~55%
[3]
  Fv-antibody concentration at which the RNase inhibitory activity is over 50%, HeLa total RNA cleavage, agarose gel: ≥ 350 nM
  IC50, RNase activity analysis with the RNA probe: 90.2 nM
  IC50, cCMP assay (hydrolysis of 2',3'-cyclic CMP, absorbance at 286 nM): 194 nM
  IC50 for RNase A activity inhibition, HeLa total RNA cleavage, agarose gel image, dose-response curve fitting: 234 nM
[4]
  decrease of RNase A activity after approximately 27 minutes, cCMP assay, saliva swab actual sample, 1 µM inhibitor: ~42%
[5]
  decrease of RNase A activity after approximately 27 minutes, cCMP assay, pig swab actual sample, 1 µM inhibitor: ~61%
[6]
  Kd: 17.5 nM

B3: Fv-2, expressed soluble Fv antibody of clone 23 (His-tag-TdTomato-VH) (other)
chain: EVQLVESAAEVRRPGASVKITCKASGYSFSTYGIQWMRQAPGQRPEWLGWIHAGTGGTKYSRKFQGRITITRDTSANTVYLDLNSLTSEDTAVYYCARYGPVGRVKRDDWGQGTTVTVSS
notes: Fusion protein made in E. coli; 69.2 kDa; No light chain; not shown: His-tag; TdTomato fluorescent protein
[2]
  decrease of RNase A activity after approximately 27 minutes, cCMP assay, serum actual sample, 1 µM inhibitor: ~55%
[3]
  Fv-antibody concentration at which the RNase inhibitory activity is over 50%, HeLa total RNA cleavage, agarose gel: ≥ 350 nM
  IC50, RNase activity analysis with the RNA probe: 65.3 nM
  IC50, cCMP assay (hydrolysis of 2',3'-cyclic CMP, absorbance at 286 nM): 236 nM
  IC50 for RNase A activity inhibition, HeLa total RNA cleavage, agarose gel image, dose-response curve fitting: 366 nM
[4]
  decrease of RNase A activity after approximately 27 minutes, cCMP assay, saliva swab actual sample, 1 µM inhibitor: ~63%
[5]
  decrease of RNase A activity after approximately 27 minutes, cCMP assay, pig swab actual sample, 1 µM inhibitor: ~49%
[6]
  Kd: 28.8 nM

B4: Fv-3, expressed soluble Fv antibody of clone 39 (His-tag-TdTomato-VH) (other)
chain: EVQLVESAAEVRRPGASVKITCKASGYSFSTYGIQWMRQAPGQRPEWLGWIHAGTGGTKYSRKFQGRITITRDTSANTVYLDLNSLTSEDTAVYYCARDGTAKKSRKDDWGQGTTVTVSS
notes: as for B3
[7]
  IC50 (RNase A activity after treatment with Fv-3 beads, 1/10 diluted Pig Swab, RNase A 10 ng, RNA gel): 632 nM
  IC50 (RNase A activity after treatment with Fv-3 beads, 1/10 diluted Saliva Swab, RNase A 10 ng, RNA gel): 838 nM
  IC50 (RNase A activity after treatment with Fv-3 beads, 1/10 diluted Serum, RNase A 10 ng, RNA gel): 1010 nM
[2]
  decrease of RNase A activity after approximately 27 minutes, cCMP assay, serum actual sample, 1 µM inhibitor: ~52%
[3]
  Fv-antibody concentration at which the RNase inhibitory activity is over 50%, HeLa total RNA cleavage, agarose gel: ≥ 350 nM
  IC50, RNase activity analysis with the RNA probe: 98.8 nM
  IC50, cCMP assay (hydrolysis of 2',3'-cyclic CMP, absorbance at 286 nM): 196 nM
  IC50 for RNase A activity inhibition, HeLa total RNA cleavage, agarose gel image, dose-response curve fitting: 436 nM
[4]
  decrease of RNase A activity after approximately 27 minutes, cCMP assay, saliva swab actual sample, 1 µM inhibitor: ~60%
[5]
  decrease of RNase A activity after approximately 27 minutes, cCMP assay, pig swab actual sample, 1 µM inhibitor: ~55%
[6]
  Kd: 33.9 nM

B5: Peptide-1, synthetic peptide with the CDR3 sequence of the screened clone (peptide)
peptide: CGPDSDVMTDF
notes: Bought from Peptron, 90% purity; Peptide-1 is tied to the CDR3 of clone 5 / Fv-1 by the order of the names only; also called peptides-1
[8]
  Kd: 1350 nM
[1]
  Kd: 1300 nM
[2]
  decrease of RNase A activity after approximately 27 minutes, cCMP assay, serum actual sample, 1 µM inhibitor: ~53%
[3]
  IC50, cCMP assay (hydrolysis of 2',3'-cyclic CMP, absorbance at 286 nM): 607 nM
  IC50 by linear regression, RNA probe assay: 8100 nM
  IC50 for the inhibition of RNase A activity, HeLa total RNA cleavage, agarose gel image: 995 nM
  peptide concentration at which the RNase inhibition activity is over 50%, HeLa total RNA cleavage, agarose gel: > 1 µM
  relative inhibition level after 60 minutes, RNA probe assay (fluorophore and quencher), peptide at 1 µM: 54.4%
[4]
  decrease of RNase A activity after approximately 27 minutes, cCMP assay, saliva swab actual sample, 1 µM inhibitor: ~30%
[5]
  decrease of RNase A activity after approximately 27 minutes, cCMP assay, pig swab actual sample, 1 µM inhibitor: ~41%

B6: Peptide-2, synthetic peptide with the CDR3 sequence of the screened clone (peptide)
peptide: YGPVGRVKRDD
notes: also called peptides-2
[1]
  Kd: 1300 nM
[2]
  decrease of RNase A activity after approximately 27 minutes, cCMP assay, serum actual sample, 1 µM inhibitor: ~55%
[3]
  IC50, cCMP assay (hydrolysis of 2',3'-cyclic CMP, absorbance at 286 nM): 373 nM
  IC50 by linear regression, RNA probe assay: 3600 nM
  IC50 for the inhibition of RNase A activity, HeLa total RNA cleavage, agarose gel image: 658 nM
  peptide concentration at which the RNase inhibition activity is over 50%, HeLa total RNA cleavage, agarose gel: > 1 µM
  relative inhibition level after 60 minutes, RNA probe assay (fluorophore and quencher), peptide at 1 µM: 53.2%
[4]
  decrease of RNase A activity after approximately 27 minutes, cCMP assay, saliva swab actual sample, 1 µM inhibitor: ~44%
[5]
  decrease of RNase A activity after approximately 27 minutes, cCMP assay, pig swab actual sample, 1 µM inhibitor: ~41%
